These are literature values, as cited in US20200069786A1, “COMPOSITION AND PROCESS FOR PREPARING VACCINE” (TREOS BIO ZRT., priority 2018, published 2020).

Like-named read-outs stand apart in the source and are kept apart here.

The test system of this data set is TSA.
[1] abbreviates: TSA expression rate in Cervical cancer.
Where [2] appears, read: TSA expression rate in LUNG cancer.
The mark [3] stands for this setting: TSA expression rate in MELANOMA
Setting [4] is: TSA expression rate in PROSTATE cancer.
The mark [5] stands for this setting: TSA expression rate in HEAD and NECK.
[6] abbreviates: TSA expression rate in GASTRIC cancer.
[7] abbreviates: TSA expression rate in LEUKEMIAS
[8] abbreviates: TSA expression rate in BLADDER cancer.
The mark [9] stands for this setting: TSA expression rate in Esophageal.
Where [10] appears, read: TSA expression rate in PEDIATRIC

B1: MORC1 (protein, UniProt Q86VD1 1-984, looked up)
MORC family CW-type zinc …: MDDRYPALQRAQLRLDFIHANSTTHSFLFGALAELLDNARDAGAERLDVFSVDNEKLQGGFMLCFLDDGCGMSPEEASDIIYFGRSKKRLSTLKFIGQYGNGLKSGSMRIGKDFILFTKKEETMTCVFFSQTFCEEESLSEVVVPMPSWLIRTRESVTDDPQKFAMELSIIYKYSPFKTEAELMQQFDVIYGKCGTLLVIYNLKLLLNGEPELDVKTDKEDILMAGALEDFPARWSFRAYTSVLYFNPWMRIFIQAKRVKTKHLCYCLYRPRKYLYVTSSFKGAFKDEVKKAEEAVKIAESILKEAQIKVNQCDRTSLSSAKDVLQRALEDVEAKQKNLKEKQRELKTARTLSLFYGVNVENRSQAGMFIYSNNRLIKMHEKVGSQLKLKSLLGAGVVGIVNIPLEVMEPSHNKQEFLNVQEYNHLLKVMGQYLVQYCKDTGINNRNLTLFCNEFGYQNDIDVEKPLNSFQYQRRQAMGIPFIIQCDLCLKWRVLPSSTNYQEKEFFDIWICANNPNRLENSCHQVECLPSIPLGTMSTISPSKNEKEKQLRESVIKYQNRLAEQQPQPQFIPVDEITVTSTCLTSAHKENTKTQKIRLLGDDLKHESLSSFELSASRRGQKRNIEETDSDVEYISETKIMKKSMEEKMNSQQQRIPVALPENVKLAERSQRSQIANITTVWRAQPTEGCLKNAQAASWEMKRKQSLNFVEECKVLTEDENTSDSDIILVSDKSNTDVSLKQEKKEIPLLNQEKQELCNDVLAMKRSSSLPSWKSLLNVPMEDVNLSSGHIARVSVSGSCKVASSPASSQSTPVKETVRKLKSKLREILLYFFPEHQLPSELEEPALSCELEQCPEQMNKKLKMCFNQIQNTYMVQYEKKIKRKLQSIIYDSNTRGIHNEISLGQCENKRKISEDKLKNLRIKLALLLQKLQLGGPEGDLEQTDTYLEALLKEDNLLFQNNLNKVTIDARHRLPLEKNEKTSEN
Turning to B1, the “TSA Expression Rate (ER)” value was 0% (BREAST), 14% (OVARIAN) and 0% (THYROID). Further, the “Expression Rate (ER) %” value (TSA expression rate in CRC) was 0%; the “Expression Rate (ER) %” value under setting [1] is 0%; the “Expression Rate (ER) %” value (TSA expression rate in Kidney) is 0%; the “Expression Rate (ER) %” value under setting [2] is listed as 18%; the “Expression Rate (ER) %” value under setting [3] is on record as 19%; the “Expression Rate (ER) %” value under setting [4] was 0%.

B2: CRISP2 (protein, UniProt P16562 22-243, looked up)
Cysteine-rich secretory …: KDPAFTALLTTQLQVQREIVNKHNELRKAVSPPASNMLKMEWSREVTTNAQRWANKCTLQHSDPEDRKTSTRCGENLYMSSDPTSWSSAIQSWYDEILDFVYGVGPKSPNAVVGHYTQLVWYSTYQVGCGIAYCPNQDSLKYYYVCQYCPAGNNMNRKNTPYQQGTPCAGCPDDCDKGLCTNSCQYQDLLSNCDSLKNTAGCEHELLKEKCKATCLCENKIY
In the case of B2, the “TSA Expression Rate (ER)” value by setting is: (BREAST) 15%; (LUNG) 29%; (OVARIAN) 14%; (THYROID) 0%. Moreover, the “Expression Rate (ER) %” value is, setting by setting: (TSA expression rate in CRC) 0%; under setting [1], 17%; under setting [5], 11%; (TSA expression rate in Kidney) 14%; under setting [3], 6%; under setting [4], 38%.

B3: SPO11 (protein, UniProt Q9Y5K1 1-396, looked up)
Meiotic recombination protein …: MAFAPMGPEASFFDVLDRHRESLLAALRRGGREPPTGGSRLASSSEVLASIENIIQDIITSLARNEAPAFTIDNRSSWENIKFEDSVGLQMVSHCTTRKIKSDSPKSAQKFSLILKILSMIYKLVQSNTYATKRDIYYTDSQLFGNQTVVDNIINDISCMLKVSRRSLHILSTSKGLIAGNLRYIEEDGTKVNCTCGATAVAVPSNIQGIRNLVTDAKFVLIVEKDATFQRLLDDNFCNKLSPCIMITGKGVPDLNTRLLVKKLWDTFHVPVFTLVDADPHGIEIMCIYKYGSMSMSFEAHHLTVPAIRWLGLLPSDLKRLNVPKDSLIPLTKRDQMKLDSILRRPYVTCQPFWRKEMEIMADSKMKAEIQALTFLSSDYLSRVYLPNKLKFGGWI
For the molecule B3, the “TSA Expression Rate (ER)” value is 12% (BRAIN), 0% (BREAST), 0% (OVARIAN) and 0% (THYROID). Also, the “Expression Rate (ER) %” value was 0% (TSA expression rate in CRC); 33% under setting [1]; 0% under setting [5]; 0% (TSA expression rate in Kidney); 0% under setting [2]; 6% under setting [3]. Also, the “Expression Rate (ER) %” value under setting [4] was 0%.

B4: SSX-5 (protein, UniProt O60225 1-188, looked up)
Protein SSX5: MNGDDAFVRRPRVGSQIPEKMQKAFDDIAKYFSEKEWEKMKASEKIIYVYMKRKYEAMTKLGFKATLPPFMRNKRVADFQGNDFDNDPNRGNQVEHPQMTFGRLQGIFPKITPEKPAEEGNDSKGVPEASGPQNNGKQLRPSGKLNTSEKVNKTSGPKRGKHAWTHRVRERKQLVIYEEISDPQEDDE
For B4, the “TSA Expression Rate (ER)” value by setting is: (BRAIN) 0%; (BREAST) 0%; (HCC) 37%; (OVARIAN) 0%; (THYROID) 0%. Besides, the “Expression Rate (ER) %” value is, setting by setting: (TSA expression rate in CRC) 2%; under setting [6], 0%; under setting [5], 7%; (TSA expression rate in Kidney) 0%; under setting [7], 24%; under setting [2], 4%. For the same molecule, the “Expression Rate (ER) %” value under setting [3] is listed as 5%.

B5: EpCAM (protein, UniProt P16422 24-314, looked up)
Epithelial cell adhesion …: QEECVCENYKLAVNCFVNNNRQCQCTSVGAQNTVICSKLAAKCLVMKAEMNGSKLGRRAKPEGALQNNDGLYDPDCDESGLFKAKQCNGTSMCWCVNTAGVRRTDKDTEITCSERVRTYWIIIELKHKAREKPYDSKSLRTALQKEITTRYQLDPKFITSILYENNVITIDLVQNSSQKTQNDVDIADVAYYFEKDVKGESLFHSKKMDLTVNGEQLDLDPGQTLIYYVDEKAPEFSMQGLKAGVIAVIVVVVIAVVAGIVVLVISRKKRMAKYEKAEIKEMGEMHRELNA
In the case of B5, the “TSA Expression Rate (ER)” value is 16% (BRAIN); 76% (BREAST); 41% (HCC); 78% (LUNG); 92% (OVARIAN); 85% (PANCREATIC). For the same molecule, under “THYROID”, the “TSA Expression Rate (ER)” value was 83%. In addition, the “Expression Rate (ER) %” value reads like this: under setting [8], 54%; (TSA expression rate in CRC) 88%; under setting [1], 36%; under setting [9], 81%; under setting [6], 90%; (TSA expression rate in Kidney) 55%. For the same molecule, the “Expression Rate (ER) %” value under setting [4] was 98%.

B6: SSX-3 (protein, UniProt Q99909 1-188, looked up)
Protein SSX3: MNGDDTFARRPTVGAQIPEKIQKAFDDIAKYFSKEEWEKMKVSEKIVYVYMKRKYEAMTKLGFKAILPSFMRNKRVTDFQGNDFDNDPNRGNQVQRPQMTFGRLQGIFPKIMPKKPAEEGNVSKEVPEASGPQNDGKQLCPPGKPTTSEKINMISGPKRGEHAWTHRLRERKQLVIYEEISDPEEDDE
For B6, the “TSA Expression Rate (ER)” value by setting is: (BRAIN) 0%; (BREAST) 0%; (OVARIAN) 0%; (PANCREATIC) 0%; (THYROID) 0%. Moreover, the “Expression Rate (ER) %” value is listed as 0% (TSA expression rate in CRC), 0% (TSA expression rate in Kidney) and 4% under setting [7].

B7: XAGE-1 (protein, UniProt Q9HD64 1-81, looked up)
X antigen family member 1: MESPKKKNQQLKVGILHLGSRQKKIRIQLRSQCATWKVICKSCISQTPGINLDLGSGVKVKIIPKEEHCKMPEAGEEQPQV
For the molecule B7, the “TSA Expression Rate (ER)” value is, setting by setting: (BRAIN) 18%; (BREAST) 58%; (HCC) 33%; (LUNG) 25%; (OVARIAN) 5%. The “Expression Rate (ER) %” value is on record as 40% under setting [5], 7% under setting [3] and 53% under setting [10].

B8: MAGE-A2 (protein, UniProt P43356 1-314, looked up)
Melanoma-associated antigen 2: MPLEQRSQHCKPEEGLEARGEALGLVGAQAPATEEQQTASSSSTLVEVTLGEVPAADSPSPPHSPQGASSFSTTINYTLWRQSDEGSSNQEEEGPRMFPDLESEFQAAISRKMVELVHFLLLKYRAREPVTKAEMLESVLRNCQDFFPVIFSKASEYLQLVFGIEVVEVVPISHLYILVTCLGLSYDGLLGDNQVMPKTGLLIIVLAIIAIEGDCAPEEKIWEELSMLEVFEGREDSVFAHPRKLLMQDLVQENYLEYRQVPGSDPACYEFLWGPRALIETSYVKVLHHTLKIGGEPHISYPPLHERALREGEE
As for B8, the “TSA Expression Rate (ER)” value reads like this: (BRAIN) 28%; (HCC) 25%; (LUNG) 40%; (OVARIAN) 7%; (THYROID) 9%. Besides, the “Expression Rate (ER) %” value is 25% under setting [8]; 18% (TSA expression rate in CRC); 53% under setting [9]; 31% under setting [6]; 38% under setting [5]; 7% (TSA expression rate in Kidney). In addition, the “Expression Rate (ER) %” value is reported as 11% under setting [7], 62% under setting [3], 60% under setting [10] and 18% under setting [4].
